What follows are proteins tested on O=Cc1cccc(C(=O)O)c1 (assay: initial rates by HPLC, Michaelis-Menten fit). Conditions: 50 mM Li-hydroxypyruvate, 50 mM Tris-HCl pH 7.0, 2.4 mM ThDP, 9 mM MgCl2, 22 °C.
Assay type: biochemical, Escherichia coli
Source text: initial rates by HPLC, Michaelis-Menten fit on transketolase (TK)

Protein	Km	kcat	kcat/Km
transketolase (TK) (Escherichia coli K-12; A282P/D469T/G506A/H192P/I365L/R520Q/S385Y) (protein, recombinant from plasmid pQR791, purified; homodimer) MSSRKELANAIRALSMDAVQKAKSGHPGAPMGMADIAEVLWRDFLKHNPQNPSWADRDRFVLSNGHGSMLIYSLLHLTGYDLPMEELKNFRQLHSKTPGHPEVGYTAGVETTTGPLGQGIANAVGMAIAEKTLAAQFNRPGHDIVDHYTYAFMGDGCMMEGISHEVCSLAGTLKLGKLIAFYDDNGISIDGPVEGWFTDDTAMRFEAYGWHVIRDIDGHDAASIKRAVEEARAVTDKPSLLMCKTIIGFGSPNKAGTHDSHGAPLGDAEIALTREQLGWKYPPFEIPSEIYAQWDAKEAGQAKESAWNEKFAAYAKAYPQEAAEFTRRMKGEMPSDFDAKAKEFIAKLQANPAKIASRKASQNALEAFGPLLPEFLGGSADLAPYNLTLWSGSKAINEDAAGNYIHYGVREFGMTAIANGISLHGGFLPYTSTFLMFVEYARNAVRMAALMKQRQVMVYTHDSIGLGETGPTHQPVEQVASLRVTPNMSTWRPCDQVESAVAWKYAVERQDGPTALILSQQNLAQQERTEEQLANIARGGYVLKDCAGQPELIFIATGSEVELAVAAYEKLTAEGVKARVVSMPSTDAFDKQDAAYRESVLPKAVTARVAVEAGIADYWYKYVGLNGAIVGMTTFGESAPAELLFEEFGFTVDNVVAKAKELL	2.3 (0.3) mM	3.8 s⁻¹	1650 M⁻¹ s⁻¹
transketolase (TK) (Escherichia coli K-12; D469T/R520Q/S385Y) (protein, recombinant from plasmid pQR791, purified; homodimer) MSSRKELANAIRALSMDAVQKAKSGHPGAPMGMADIAEVLWRDFLKHNPQNPSWADRDRFVLSNGHGSMLIYSLLHLTGYDLPMEELKNFRQLHSKTPGHPEVGYTAGVETTTGPLGQGIANAVGMAIAEKTLAAQFNRPGHDIVDHYTYAFMGDGCMMEGISHEVCSLAGTLKLGKLIAFYDDNGISIDGHVEGWFTDDTAMRFEAYGWHVIRDIDGHDAASIKRAVEEARAVTDKPSLLMCKTIIGFGSPNKAGTHDSHGAPLGDAEIALTREQLGWKYAPFEIPSEIYAQWDAKEAGQAKESAWNEKFAAYAKAYPQEAAEFTRRMKGEMPSDFDAKAKEFIAKLQANPAKIASRKASQNAIEAFGPLLPEFLGGSADLAPYNLTLWSGSKAINEDAAGNYIHYGVREFGMTAIANGISLHGGFLPYTSTFLMFVEYARNAVRMAALMKQRQVMVYTHDSIGLGETGPTHQPVEQVASLRVTPNMSTWRPCDQVESAVAWKYGVERQDGPTALILSQQNLAQQERTEEQLANIARGGYVLKDCAGQPELIFIATGSEVELAVAAYEKLTAEGVKARVVSMPSTDAFDKQDAAYRESVLPKAVTARVAVEAGIADYWYKYVGLNGAIVGMTTFGESAPAELLFEEFGFTVDNVVAKAKELL	2.3 (0.3) mM	2.8 s⁻¹	1220 M⁻¹ s⁻¹
transketolase (TK) (Escherichia coli K-12; D469T/H192P/R520Q/S385Y) (protein, recombinant from plasmid pQR791, purified; homodimer) MSSRKELANAIRALSMDAVQKAKSGHPGAPMGMADIAEVLWRDFLKHNPQNPSWADRDRFVLSNGHGSMLIYSLLHLTGYDLPMEELKNFRQLHSKTPGHPEVGYTAGVETTTGPLGQGIANAVGMAIAEKTLAAQFNRPGHDIVDHYTYAFMGDGCMMEGISHEVCSLAGTLKLGKLIAFYDDNGISIDGPVEGWFTDDTAMRFEAYGWHVIRDIDGHDAASIKRAVEEARAVTDKPSLLMCKTIIGFGSPNKAGTHDSHGAPLGDAEIALTREQLGWKYAPFEIPSEIYAQWDAKEAGQAKESAWNEKFAAYAKAYPQEAAEFTRRMKGEMPSDFDAKAKEFIAKLQANPAKIASRKASQNAIEAFGPLLPEFLGGSADLAPYNLTLWSGSKAINEDAAGNYIHYGVREFGMTAIANGISLHGGFLPYTSTFLMFVEYARNAVRMAALMKQRQVMVYTHDSIGLGETGPTHQPVEQVASLRVTPNMSTWRPCDQVESAVAWKYGVERQDGPTALILSQQNLAQQERTEEQLANIARGGYVLKDCAGQPELIFIATGSEVELAVAAYEKLTAEGVKARVVSMPSTDAFDKQDAAYRESVLPKAVTARVAVEAGIADYWYKYVGLNGAIVGMTTFGESAPAELLFEEFGFTVDNVVAKAKELL	2.2 (0.4) mM	3.5 s⁻¹	1590 M⁻¹ s⁻¹
transketolase (TK) (Escherichia coli K-12; A282P/D469T/R520Q/S385Y) (protein, recombinant from plasmid pQR791, purified; homodimer) MSSRKELANAIRALSMDAVQKAKSGHPGAPMGMADIAEVLWRDFLKHNPQNPSWADRDRFVLSNGHGSMLIYSLLHLTGYDLPMEELKNFRQLHSKTPGHPEVGYTAGVETTTGPLGQGIANAVGMAIAEKTLAAQFNRPGHDIVDHYTYAFMGDGCMMEGISHEVCSLAGTLKLGKLIAFYDDNGISIDGHVEGWFTDDTAMRFEAYGWHVIRDIDGHDAASIKRAVEEARAVTDKPSLLMCKTIIGFGSPNKAGTHDSHGAPLGDAEIALTREQLGWKYPPFEIPSEIYAQWDAKEAGQAKESAWNEKFAAYAKAYPQEAAEFTRRMKGEMPSDFDAKAKEFIAKLQANPAKIASRKASQNAIEAFGPLLPEFLGGSADLAPYNLTLWSGSKAINEDAAGNYIHYGVREFGMTAIANGISLHGGFLPYTSTFLMFVEYARNAVRMAALMKQRQVMVYTHDSIGLGETGPTHQPVEQVASLRVTPNMSTWRPCDQVESAVAWKYGVERQDGPTALILSQQNLAQQERTEEQLANIARGGYVLKDCAGQPELIFIATGSEVELAVAAYEKLTAEGVKARVVSMPSTDAFDKQDAAYRESVLPKAVTARVAVEAGIADYWYKYVGLNGAIVGMTTFGESAPAELLFEEFGFTVDNVVAKAKELL	2.1 (0.2) mM	3.2 s⁻¹	1520 M⁻¹ s⁻¹
transketolase (TK) (Escherichia coli K-12; A282P/D469T/H192P/R520Q/S385Y) (protein, recombinant from plasmid pQR791, purified; homodimer) MSSRKELANAIRALSMDAVQKAKSGHPGAPMGMADIAEVLWRDFLKHNPQNPSWADRDRFVLSNGHGSMLIYSLLHLTGYDLPMEELKNFRQLHSKTPGHPEVGYTAGVETTTGPLGQGIANAVGMAIAEKTLAAQFNRPGHDIVDHYTYAFMGDGCMMEGISHEVCSLAGTLKLGKLIAFYDDNGISIDGPVEGWFTDDTAMRFEAYGWHVIRDIDGHDAASIKRAVEEARAVTDKPSLLMCKTIIGFGSPNKAGTHDSHGAPLGDAEIALTREQLGWKYPPFEIPSEIYAQWDAKEAGQAKESAWNEKFAAYAKAYPQEAAEFTRRMKGEMPSDFDAKAKEFIAKLQANPAKIASRKASQNAIEAFGPLLPEFLGGSADLAPYNLTLWSGSKAINEDAAGNYIHYGVREFGMTAIANGISLHGGFLPYTSTFLMFVEYARNAVRMAALMKQRQVMVYTHDSIGLGETGPTHQPVEQVASLRVTPNMSTWRPCDQVESAVAWKYGVERQDGPTALILSQQNLAQQERTEEQLANIARGGYVLKDCAGQPELIFIATGSEVELAVAAYEKLTAEGVKARVVSMPSTDAFDKQDAAYRESVLPKAVTARVAVEAGIADYWYKYVGLNGAIVGMTTFGESAPAELLFEEFGFTVDNVVAKAKELL	1.3 (0.2) mM	2.9 s⁻¹	2230 M⁻¹ s⁻¹
transketolase (TK) (Escherichia coli K-12; A282P/D469T/H192P/I365L/R520Q/S385Y) (protein, recombinant from plasmid pQR791, purified; homodimer) MSSRKELANAIRALSMDAVQKAKSGHPGAPMGMADIAEVLWRDFLKHNPQNPSWADRDRFVLSNGHGSMLIYSLLHLTGYDLPMEELKNFRQLHSKTPGHPEVGYTAGVETTTGPLGQGIANAVGMAIAEKTLAAQFNRPGHDIVDHYTYAFMGDGCMMEGISHEVCSLAGTLKLGKLIAFYDDNGISIDGPVEGWFTDDTAMRFEAYGWHVIRDIDGHDAASIKRAVEEARAVTDKPSLLMCKTIIGFGSPNKAGTHDSHGAPLGDAEIALTREQLGWKYPPFEIPSEIYAQWDAKEAGQAKESAWNEKFAAYAKAYPQEAAEFTRRMKGEMPSDFDAKAKEFIAKLQANPAKIASRKASQNALEAFGPLLPEFLGGSADLAPYNLTLWSGSKAINEDAAGNYIHYGVREFGMTAIANGISLHGGFLPYTSTFLMFVEYARNAVRMAALMKQRQVMVYTHDSIGLGETGPTHQPVEQVASLRVTPNMSTWRPCDQVESAVAWKYGVERQDGPTALILSQQNLAQQERTEEQLANIARGGYVLKDCAGQPELIFIATGSEVELAVAAYEKLTAEGVKARVVSMPSTDAFDKQDAAYRESVLPKAVTARVAVEAGIADYWYKYVGLNGAIVGMTTFGESAPAELLFEEFGFTVDNVVAKAKELL	1.3 (0.4) mM	2.1 s⁻¹	1620 M⁻¹ s⁻¹
transketolase (TK) (Escherichia coli K-12; A282P/D469T/G506A/H192P/R520Q/S385Y) (protein, recombinant from plasmid pQR791, purified; homodimer) MSSRKELANAIRALSMDAVQKAKSGHPGAPMGMADIAEVLWRDFLKHNPQNPSWADRDRFVLSNGHGSMLIYSLLHLTGYDLPMEELKNFRQLHSKTPGHPEVGYTAGVETTTGPLGQGIANAVGMAIAEKTLAAQFNRPGHDIVDHYTYAFMGDGCMMEGISHEVCSLAGTLKLGKLIAFYDDNGISIDGPVEGWFTDDTAMRFEAYGWHVIRDIDGHDAASIKRAVEEARAVTDKPSLLMCKTIIGFGSPNKAGTHDSHGAPLGDAEIALTREQLGWKYPPFEIPSEIYAQWDAKEAGQAKESAWNEKFAAYAKAYPQEAAEFTRRMKGEMPSDFDAKAKEFIAKLQANPAKIASRKASQNAIEAFGPLLPEFLGGSADLAPYNLTLWSGSKAINEDAAGNYIHYGVREFGMTAIANGISLHGGFLPYTSTFLMFVEYARNAVRMAALMKQRQVMVYTHDSIGLGETGPTHQPVEQVASLRVTPNMSTWRPCDQVESAVAWKYAVERQDGPTALILSQQNLAQQERTEEQLANIARGGYVLKDCAGQPELIFIATGSEVELAVAAYEKLTAEGVKARVVSMPSTDAFDKQDAAYRESVLPKAVTARVAVEAGIADYWYKYVGLNGAIVGMTTFGESAPAELLFEEFGFTVDNVVAKAKELL	2.7 (0.4) mM	3.9 s⁻¹	1440 M⁻¹ s⁻¹
